Data published in patent publication US20070077239A1 (BOARD OF TRUSTEES OF THE UNIVERSITY OF ILLINOIS, published 2007).
One block for each binder: values may come before it. Ends that are not written are not given here.

Key:
[1] = target: T1, human serum albumin (human, UniProt P02768 25-609); test: HSA-Sepharose affinity chromatography of human lung extract, elution at pH 4.0, SDS-PAGE, MALDI-MS
T1 construct: also called HSA
Method: Protein purification and MALDI-MS: Human lung tissue (180 g) was washed, minced, and homogenized with 20 volumes of buffer A (20 mM Hepes/Tris/0.15 M NaCl/0.1 mM phenylmethylsufonylfluoride [PMSF]/30 pM benzamidine [BM], pH 7.4). The homogenate was centrifuged at 1000×g for 10 min and the supernatant was centrifuged at 100,000×g for 60 min. The pellet obtained was solubilized using 2.5% sodium cholate and 4 M urea (Tiruppathi et al., Proc. Natl. Acad Sci. USA, 93:250-254 (1996)). The solubilized extract was concentrated by ethanol precipitation and re-extracted with Triton X- 100 (Tiruppathi et al., Proc. Natl. Acad Sci. USA, 93:250-254 (1996)). The Triton X-100 concentration in the extract was adjusted to 0.2% and applied on HSAsepharose column (1×10 cm) pre-equilibrated with buffer-B (10 MM Tris-HCl, 0.5 MM EDTA, pH 7.4 containing 0.1 mM PMSF, 30 [M BM, and 0.2% Triton X-100). The column was washed and bound proteins were eluted with 20 ml of 0.1 M citrate buffer pH 4.0 containing 0.2% Triton X- 100. The proteins eluted were separated on SDS-PAGE, stained with Coomassie Brilliant Blue R-250 (CBBR-250) (FIG. 1A). The protein bands excised were digested with trypsin and peptides were analyzed using MALDI-MS at Yale University Biotechnology Resource Laboratory (New Haven, Conn.). The peptide masses were compared with known sequence using Profound search analysis on OWL database. […]

[2] = target: T1, human serum albumin; test: 125I-HSA dot-blot on peptide immobilised on nitrocellulose
Method: (§1) Peptides were immobilized on nitrocellulose membranes and non-specific binding was blocked with bovine γ-globulin (2 mg/ml in PBS) for 1 h at 22° C. Membranes were washed 2× with PBS and incubated with ¹²⁵I-labeled HSA ([…]) for 2 h at 22° C. Membranes were then washed 4× with PBS containing 0.05% Tween-20 (PBST) and autoradiography was performed. In some experiments, the membranes were directly counted to determine the membrane-associated radioactivity.
(§2) Peptides were immobilized on nitrocellulose membranes and then incubated with 1 ml of 0.3 μM ¹²⁵I-HSA in PBS for 2 h. Other details were described in Example 1. Non-specific binding was determined by incubating membranes with ¹²⁵I-HSA in the absence of any peptides. Results are shown mean±S.E. for three separate experiments made in triplicate.

[3] = target: T1, human serum albumin; test: dot-blot, 2.5 nmoles peptide per filter on nitrocellulose, 0.3 µM 125I-HSA, 2 h
Method: as §1, §2

[4] = target: T1, human serum albumin; test: dot-blot, 10.0 nmoles peptide per filter on nitrocellulose, 0.3 µM 125I-HSA, 2 h
Method: as §1, §2

[5] = target: T1, human serum albumin; test: dot-blot, 1.0 nmoles peptide per filter on nitrocellulose, 0.3 µM 125I-HSA, 2 h
Method: as §1, §2

[6] = target: T1, human serum albumin; test: dot-blot, 5.0 nmoles peptide per filter on nitrocellulose, 0.3 µM 125I-HSA, 2 h
Method: as §1, §2

[7] = target: T2, rat serum albumin (rat, UniProt P02770 25-608); test: binding of albumin to the immobilised peptide; details not given
T2 construct: also called RSA
T2 sequence (P02770 25-608 limits assumed): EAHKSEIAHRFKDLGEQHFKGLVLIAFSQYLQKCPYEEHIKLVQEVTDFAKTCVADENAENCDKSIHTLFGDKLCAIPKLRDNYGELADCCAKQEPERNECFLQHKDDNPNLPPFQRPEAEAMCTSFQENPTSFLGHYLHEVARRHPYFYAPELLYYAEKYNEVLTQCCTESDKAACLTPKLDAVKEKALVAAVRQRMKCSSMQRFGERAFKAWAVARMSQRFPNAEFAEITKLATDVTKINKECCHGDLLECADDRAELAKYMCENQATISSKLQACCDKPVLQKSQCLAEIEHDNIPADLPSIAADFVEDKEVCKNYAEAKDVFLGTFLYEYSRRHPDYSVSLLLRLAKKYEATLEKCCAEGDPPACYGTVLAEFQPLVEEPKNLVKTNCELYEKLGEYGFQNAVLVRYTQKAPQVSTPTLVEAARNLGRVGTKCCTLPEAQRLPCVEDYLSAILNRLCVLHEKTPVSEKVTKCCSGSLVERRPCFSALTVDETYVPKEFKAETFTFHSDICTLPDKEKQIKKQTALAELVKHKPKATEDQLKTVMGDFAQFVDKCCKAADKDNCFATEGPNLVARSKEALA

B2: EARKIV peptide (peptide)
peptide: EARKIV-NH2
notes: Synthetic hexapeptide from MPO-HC; also called EARKIV motif
binding result [2]: no binding
125I-HSA bound (pmoles/filter) [3]: 0.06 pmoles/filter
125I-HSA bound (pmoles/filter) [4]: 0.11 pmoles/filter
125I-HSA bound (pmoles/filter) [5]: 0.05 pmoles/filter
125I-HSA bound (pmoles/filter) [6]: 0.08 pmoles/filter

B4: MPO-WT-peptide (MPO-HC sequence 425-454) (peptide)
peptide: not shown
modifications: C-terminal amide
notes: Immobilised on nitrocellulose in the dot-blot; also called ADS
binding result [7]: binds
125I-HSA bound (pmoles/filter) [3]: 1.45 pmoles/filter
125I-HSA bound (pmoles/filter) [4]: 6.55 pmoles/filter
125I-HSA bound (pmoles/filter) [5]: 0.31 pmoles/filter
125I-HSA bound (pmoles/filter) [6]: 2.93 pmoles/filter

Results, then the binder that gave them:

binding result [1]: binds
B1: MPO-HC (60 kDa protein isolated from human lung tissue) (enzyme, UniProt P05164 279-745, looked up)
chain: VNCETSCVQQPPCFPLKIPPNDPRIKNQADCIPFFRSCPACPGSNITIRNQINALTSFVDASMVYGSEEPLARNLRNMSNQLGLLAVNQRFQDNGRALLPFDNLHDDPCLLTNRSARIPCFLAGDTRSSEMPELTSMHTLLLREHNRLATELKSLNPRWDGERLYQEARKIVGAMVQIITYRDYLPLVLGPTAMRKYLPTYRSYNDSVDPRIANVFTNAFRYGHTLIQPFMFRLDNRYQPMEPNPRVPLSRVFFASWRVVLEGGIDPILRGLMATPAKLNRQNQIAVDEIRERLFEQVMRIGLDLPALNMQRSRDHGLPGYNAWRRFCGLPQPETVGQLGTVLRNLKLARKLMEQYGTPNNIDIWMGGVSEPLKRKGRVGPLLACIIGTQFRKLRDGDRFWWENEGVFSMQQRQALAQISLPRIICDNTGITTVSKNNIFMSNSYPRDFVNCSTLPALNLASWREAS
notes: domain: heavy chain (HC); also called MPO heavy chain

binding result [2]: no binding
125I-HSA bound (pmoles/filter) [3]: 0.11 pmoles/filter
125I-HSA bound (pmoles/filter) [4]: 0.19 pmoles/filter
125I-HSA bound (pmoles/filter) [5]: 0.01 pmoles/filter
125I-HSA bound (pmoles/filter) [6]: 0.14 pmoles/filter
B3: MPO-MT-peptide (peptide)
peptide: GLATELGSLNPGWDGEGLYQEAGGIVGAMV-NH2
